Source: the nanobody polyreactivity screen of Harvey et al. (2022)

Assay: yeast display, Sf9 membrane polyspecificity reagent, FACS + sequencing; frameworks hold sequencing errors
How it was run: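 After 36–48 hours of galactose induction, yeast (Saccharomyces cerevisiae BJ5465) displaying a synthetic nanobody library were stained at 4 °C for 1 hour with 10% biotinylated, detergent-solubilized Sf9 membrane reagent. Streptavidin microbeads enriched the stained cells before FACS sorting into low and high (top ~1%) gates on anti-HA and streptavidin fluorescence. Each clone's polyreactivity label reflects its gate of origin.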

Sequence | polyreactivity (PSR sort gate)
QVHLVESGGGLVQAGGSLRLSCAASGSTFGGNAMGWYRQPPGKERELVAAISSGDSTTYADSVKGRFTISRDNAKNTVYLQMNSLKPEDTAVYYCNADYTDTLTGYFSDEVYHGMDYWGQGTQVTVSS | low polyreactivity
QDQLVESGGGLVQAGGSLRLSCAASGLIFVSYAMGWYRQAPGKERELVASITDSDSSTYYADSVKGRFTISRDNAKNTVYLQMNSLKPEDTAVYYCATGGRTEIWYPTLDYWGQGTQVTVSS | low polyreactivity
QVQLVESGGGLVQAGGSLRLSCAASGRTFGLNAMGWYRQAPGKEMELVAAITSGGSTYYADSVKGRFTISRDNAKNTVYLQMNSLKPEDTAVYYCAVTYNGDSSWPGDYWGQGTQVTVSS | low polyreactivity
QDQLVESGGGLVQAGGSLRLSCAASGLTFQSYAIGWYRQAPGKERELVATISNGSSTYYADSVKGRFTISRDNAKNTVYLQMNSQKPEDTAVYYCAADGYLHAGHWRTYGYYYWGHGTQVTVSS | low polyreactivity
QVQLVESGGGLVQAGGSLRLSCAASGSNFTPNTMGWYRQAPAKERELVAGISSGDSTDYADSVKVRFTISRDNAKNTVYLQLNSLNPEDPAVYYCAAPWYGYYSRYDFYYWGQGTQVTVSS | low polyreactivity
QVQQQESGGGLVQAGGSLRLSCAASGTIFQLTVMGRYRQAPGKDRELVASIDYGGNTNYADSVKGRFTISRDNAKNTVYLQMNCRKPEDTAVYYCAASSDSWTTHPYWGQGTQVTVRS | low polyreactivity
QVQLIESGGGLVQAGGSLRLSCAASGIIFYDYAMGWYRQAPGKERELVATITSGGSTNYADSVKGRFTISRDNAKNTVYLQMNSLKPEDTAVYYCAAGRGLILGGVYGYDYWGQGTQVTVSS | low polyreactivity
QVQLVESGGGLVQAGGSLRLSCAASGYTFRRYAMGWYRQAPGKERELVAGITRTGNTNYADSVKGRFTISRDNAKNTVYLQMNSLKPEDTAVYYCARDLGGYKRLYDYWGQGTQVTVSS | high polyreactivity
QVQLVESGGGIVQAGGSLRLSCAASGRTLGGYAMGWYRQAPGKERELVAAITRRGGSTYYADSVKGRFTISRDNAKNTVYLQMNSLKPEDTAVYYCAARWYARSLTRFNYWGQGTQVTVSS | high polyreactivity
QVHLVESGGGLVQAGGSLRLSCAASGRIFFPNAMGWYRQAPGKERELVAGISIGGSTKYADSVKGRFTISRDNAKNTVYLQMNSLKPEDTAVYYCAAGRGRHTYNYWGQGTQVTVSS | low polyreactivity
QVQLVESGGGLVQAGGSLRISCAASGSILGLYAMGWYRQAPGKERELVAAITYRGGRTDYADSVKGRFTISRDNAKNTVYLQMNSLKPEDTAVYYCAAGYLPRPRYSTSYLYYYWGQGTQVTVSS | high polyreactivity
QVQLLESRGGLVQAGGSLRLSCPASGITFSRCAMGWYRQAPGKERELVAAITSGGRTNYADSVKGRFTISRDNATNTVYLQMISLKPEDTAVYYCAASYYYLSWRMDYWGQGTQVTVSS | high polyreactivity
QVQLVESGGGLVQAGGSLRLSCAASGSIFAKYGMGWYRQAPGKEREFVAAISKSGGITYYADSVKGRFTISRDNAKNTVYLQMNSLKPEDTAVYYCADSYVSYRKRDDYWGQGTQVTVSS | high polyreactivity
QVQLVESGGGLFQAGGSLRLSCAASGRIFIVITMGWYRQAPGKERELVATIDSDGDTNYADSVKGRFTISRDNAKNTVYLQMNSLKPEDTAVYYCAAYYTHTLAALKGGRMDYWGQGTQVTVSS | low polyreactivity
QVQLVESGGGLVQAGGSLRLSCAASGIIFYYYAMGWYRQATGKERELVAAITRSGGSTYYADSVKGRFTISRDNAKNTVYLQMNSLKPEDTAVYYCAAARLPYYVGRYYYWGQGTQVTVSS | high polyreactivity
QVQLVESGGGLVQAGGSLRLSCAASGSIFSYYAMGWSSQAPGKERELVAAISKRGASTYYADSVKGRFSISRDIAKNTVYLQMNSLKPEDTAVYYCAAYRQGSAYDYWGKGTQVTVSS | high polyreactivity

Sequence | polyreactivity (PSR sort gate)
QVQLVESGGGLVQAGGSLRLSCAASGGIFGYYAMGWYRQAPGKERELVAAISISGGRTYYADSVKGRFTISRDNAKNTVYLQMNSLKPEDTAVYYCKAARKVYVRGRGSEMDYWGQGTQVTVSS | low polyreactivity
QVQLVESGGGLVQAGGILRLSCAASGFTFSDNAMGWYIQAPGKERELVAAISRSGGRTYYADSVKGRFTISRDNAKNTVYLQMNSLKPEDTAVYYCAAYQYGMDYWGQGSQVTVSS | high polyreactivity
QVQLVESGGGLVQAGGSLRLSCAASGRIFRSNAMGWYSQAPGKERELVAAITLRGGSTFYADSVKGRFTISRDNAKNTVYLQMNSLKPEDTAVYYCAARSYWSRSIWSPYDYWGQGTQVTVSS | high polyreactivity
QVQLVESGGGLVQAGGSLRLSCAASGFIFTTNAMGWYRQAPGKERELVAAITRSGGSTYADSVKGRFTISRDNAKNTVYLQMNSLKPEDTAVYYCNADWAGVYTSYEYDYWGQGTQVTVSS | low polyreactivity
QVQLVESGGGLVQAGGSLRLSCAASGSTFGVYAMGWYRQAPGKERELVAAISGSGAGTYYADSVKGRFTISRDNAKNTVYLQMNSLKPEDTAVYYFNKVSVRGQRYGYWGQGTQVTVSS | high polyreactivity
QVQLVESGAGLVQAGGSLRLSWAASGFTFAQNAMGWYTQAPGKERELVAAISRRGGSTYYADSVKGRFTISRDNAKNTVYLQMNSLKPEDTAVYYCDTAGTYTGGEGYWGQGTQVTVSS | high polyreactivity
QVQLVESGGGLVQAGGILRLSCAASGSTFPGYAMGWYRQAPGKERELVAAISGNGVITYYADSVKGRFTISRDNAKNTVYLQMNSLKPEDTAVYYCNADRLYWGGYYGLTYWGQGTQVTVSS | low polyreactivity
QVQLVESGGGLVQAGGSLRLSCAASGSTFYIYAMGWYRQATGKERELVARITRGGTTYADSEKGRFTISRDNAKNTVYLQMNSLKPEDTAVYYCNAASKTTRYYQAFYSGGGYWGQGTQVTVSS | high polyreactivity
QVQLVESGGGLVQAGGSLRLSCAASGSIFARYTMGWYRQAPGKERELVARITSSGGSTYYADSVKGRFTISRDNAKNTVYLQMNSLKPEDTAVYYCAARYRRYVRFQGDYWGQGTQVTVSS | high polyreactivity
QVQLVESGGRLVKAGGSLRLSCAASGRNFFYYTMAWYRQAPGKERELVATISWRGGSTYYADSVKGRFTFSRDNAKNTDYLLMNSLKPEETAVYYCAARYRCRYDSWGQGTQVTVSS | high polyreactivity
QVQLVESGGGLVQAGGSLRLSCAASGSIFVSNAMGWYRQAPGKERELVAAISGGRSTYYADSVKGRFTISRDNAKNTVYLQMNSLKPEDTAVYYCAKKGGHRTYGYDSWGQGTQVTVSS | low polyreactivity
QDQLVESGGGLVQAGGSLRLSCAASGRILASYAMGWYRQAPGKERELVAAISLSGGSTYYADSVKGRFTISRDNAKNTVYLQMNSLKPEDTAVTYCAAKYPQKTPVNSYGNSFYYWGQGTQVTGSS | low polyreactivity
QVQLVESGGGLVQAGGSLRLSCAASGSTFARYAMGWYRQAPGKERELVAAISRRGGSTYYADSVKGRFTISRDNAKNTVYLQINSLKPEDTAVYYCAARYGIITSFEYDYWGQGTQVTVSS | high polyreactivity
QVQLVESGGGLVQAGGSLRLSCAASGSIFRGNAIGWYRQAPGKDRELVAAISWNGVSTYYADSVKGRFTISRDNAKHTVYLQMNSLKPEDTAVYYCPTVGLRRLFVKPGTLKDYWGQGTQVTVSS | low polyreactivity
QVQLVASGGGLLQAGGSLRLSCAASGSIVGLYAMGWYRQAPGNETELVAAISWSAGRTYYADTVKGRFTISRDNAKNTVYLQMNSLIPEETAVYYCNAPYLHYVFVFTDYSQRYDYWGQGTQVTVSS | high polyreactivity
